B1: recombinant extracellular domain (EC) of N-cadherin (EC-N-Cdh) purified from ΔPOMGnT1 HEK293T cells (domain or fragment, mouse, UniProt P15116 160-724, looked up)
chain: DWVIPPINLPENSRGPFPQELVRIRSDRDKNLSLRYSVTGPGADQPPTGIFIINPISGQLSVTKPLDRELIARFHLRAHAVDINGNQVENPIDIVINVIDMNDNRPEFLHQVWNGSVPEGSKPGTYVMTVTAIDADDPNALNGMLRYRILSQAPSTPSPNMFTINNETGDIITVAAGLDREKVQQYTLIIQATDMEGNPTYGLSNTATAVITVTDVNDNPPEFTAMTFYGEVPENRVDVIVANLTVTDKDQPHTPAWNAAYRISGGDPTGRFAILTDPNSNDGLVTVVKPIDFETNRMFVLTVAAENQVPLAKGIQHPPQSTATVSVTVIDVNENPYFAPNPKIIRQEEGLHAGTMLTTLTAQDPDRYMQQNIRYTKLSDPANWLKIDPVNGQITTIAVLDRESPNVKNNIYNATFLASDNGIPPMSGTGTLQIYLLDINDNAPQVLPQEAETCETPEPNSINITALDYDIDPNAGPFAFDLPLSPVTIKRNWTINRLNGDFAQLNLKIKFLEAGIYEVPIIITDSGNPPKSNISILRVKVCQCDSNGDCTDVDRIVGAGLGTGA
modifications: N-glycans at Asn273, 325, 402, 572, 622, 651, 692: nongalactosylated complex-type N-glycans with a bisecting GlcNAc dominate at all sites except Asn651 and Asn692; galactosylation (-27% on average) and sialylation (-16% on average) decreased against the WT-derived protein; O-mannosylation as in the WT-derived protein
notes: N-cadherin (neural cadherin), mouse, extracellular domain (EC1-EC5) amplified from mouse cDNA; same construct as m1, other host cells; Same polypeptide as m1; It differs only in the N-glycans, because it was made in POMGNT1 knockout cells; See the note of m1 for the limits read from the primers; also called ΔPOMGnT1-derived N-Cdh; N-Cdh from ΔPOMGnT1 cells; source: ΔPOMGnT1 (POMGNT1 knockout) …
B2: recombinant extracellular domain (EC) of N-cadherin (EC-N-Cdh) purified from WT HEK293T cells (domain or fragment, mouse, UniProt P15116 160-724, looked up)
chain: B1 chain
modifications: N-glycans at Asn190 (scarcely), 273, 325, 402, 572, 622, 651, 692 (complex-type, Asn651 high-mannose-type); nonelongated O-linked mannose at 15 sites (Table S6)
notes: N-cadherin (neural cadherin), mouse, extracellular domain (EC1-EC5) amplified from mouse cDNA; Cloned AscI/XhoI into pSecTag2 (Invitrogen); also called WT-derived N-Cdh; N-Cdh extracellular domain; source: HEK293T (WT), stably transfected with pMLHD7, secreted into serum-free medium, purified (HisTrap); not shown: His8, C-terminal, kept

Target: the molecule itself
Test: bead aggregation assay; EC-N-Cdh coated on Dynabeads (40 μg protein per 40 μl beads, o/n 4 °C); binding buffer 50 mM Tris-HCl pH 7.2, 100 mM NaCl, 10 mM KCl, 0.2% BSA; 2 mM CaCl2 (2 mM EDTA as control); room temperature; aggregate size imaged over 1 h

| Protein | binding result |
| --- | --- |
| B1 | binds |
| B2 | binds |

Source: publication PMC7994789, “Glycosyltransferase POMGNT1 deficiency strengthens N-cadherin-mediated cell–cell adhesion” (The Journal of Biological Chemistry, 2021)
